Measured values taken from ChEMBL document CHEMBL3525932, “Comparison of metabolism of sesamin and episesamin by drug-metabolizing enzymes in human liver” (Drug Metab Dispos, 2012).

Columns and labels:
[1] = substrate: c1cc2c(cc1[C@H]1OC[C@H]3[C@@H]1CO[C@@H]3c1ccc3c(c1)OCO3)OCO2; test: Activity of recombinant human CYP2C9 expressed in Saccharomyces cerevisiae AH22 cells assessed as enzyme-mediated sesamin monocatecholization after 15 mins by Michaelis-Menten plot analysis in presence of NADPH; assay type: ADME, cell-based
[2] = substrate: [H][C@]12CO[C@@H](c3ccc4c(c3)OCO4)[C@@]1([H])CO[C@@H]2c1ccc(O)c(O)c1; test: (§1) Drug metabolism in human liver cytosol assessed as COMT-mediated methylation after 10 to 30 mins by HPLC analysis in presence of SAM; assay type: ADME
[3] = substrate: [H][C@]12CO[C@H](c3ccc4c(c3)OCO4)[C@@]1([H])CO[C@@H]2c1ccc(O)c(O)c1; test: as §1; assay type: ADME
[4] = substrate: [H][C@]12CO[C@@H](c3ccc(O)c(O)c3)[C@@]1([H])CO[C@@H]2c1ccc2c(c1)OCO2; test: as §1; assay type: ADME
[5] = substrate: [H][C@]12CO[C@@H](c3ccc4c(c3)OCO4)[C@@]1([H])CO[C@@H]2c1ccc(O)c(O)c1; test: (§2) Activity of recombinant human CYP2C19 expressed in Saccharomyces cerevisiae AH22 cells assessed as enzyme-mediated episesamin dicatechol formation after 15 mins by HPLC analysis in presence of NADPH; assay type: ADME, cell-based
[6] = substrate: [H][C@]12CO[C@@H](c3ccc(O)c(O)c3)[C@@]1([H])CO[C@@H]2c1ccc2c(c1)OCO2; test: as §2; assay type: ADME, cell-based
[7] = substrate: [H][C@]12CO[C@H](c3ccc4c(c3)OCO4)[C@@]1([H])CO[C@@H]2c1ccc(O)c(O)c1; test: Activity of recombinant human CYP2C19 expressed in Saccharomyces cerevisiae AH22 cells assessed as enzyme-mediated sesamin dicatechol formation after 15 mins by HPLC analysis in presence of NADPH; assay type: ADME, cell-based
[8] = substrate: c1cc2c(cc1[C@H]1OC[C@H]3[C@@H]1CO[C@@H]3c1ccc3c(c1)OCO3)OCO2; test: Activity of recombinant human CYP1A2 expressed in Saccharomyces cerevisiae AH22 cells assessed as enzyme-mediated sesamin monocatecholization after 15 mins by Michaelis-Menten plot analysis in presence of NADPH; assay type: ADME, cell-based
[9] = substrate: [H][C@]12CO[C@@H](c3ccc4c(c3)OCO4)[C@@]1([H])CO[C@@H]2c1ccc(O)c(O)c1; test: (§3) Drug metabolism in Sprague-Dawley rat liver cytosol assessed as COMT-mediated methylation after 10 to 30 mins by HPLC analysis in presence of SAM; assay type: ADME
[10] = substrate: [H][C@]12CO[C@H](c3ccc4c(c3)OCO4)[C@@]1([H])CO[C@@H]2c1ccc(O)c(O)c1; test: as §3; assay type: ADME
[11] = substrate: [H][C@]12CO[C@@H](c3ccc(O)c(O)c3)[C@@]1([H])CO[C@@H]2c1ccc2c(c1)OCO2; test: as §3; assay type: ADME

B1: Cytochrome P450 2C9 (Homo sapiens) (protein)
chain: MDSLVVLVLCLSCLLLLSLWRQSSGRGKLPPGPTPLPVIGNILQIGIKDISKSLTNLSKVYGPVFTLYFGLKPIVVLHGYEAVKEALIDLGEEFSGRGIFPLAERANRGFGIVFSNGKKWKEIRRFSLMTLRNFGMGKRSIEDRVQEEARCLVEELRKTKASPCDPTFILGCAPCNVICSIIFHKRFDYKDQQFLNLMEKLNENIKILSSPWIQICNNFSPIIDYFPGTHNKLLKNVAFMKSYILEKVKEHQESMDMNNPQDFIDCFLMKMEKEKHNQPSEFTIESLENTAVDLFGAGTETTSTTLRYALLLLLKHPEVTAKVQEEIERVIGRNRSPCMQDRSHMPYTDAVVHEVQRYIDLLPTSLPHAVTCDIKFRNYLIPKGTTILISLTSVLHDNKEFPNPEMFDPHHFLDEGGNFKKSKYFMPFSAGKRICVGEALAGMELFLFLTSILQNFNLKSLVDPKNLDTTPVVNGFASVPPFYQLCFIPV
Km [1]: 5.4 µM
kcat [1]: 0.0517 s⁻¹
kcat/Km [1]: 9500 M⁻¹ s⁻¹

B2: Catechol O-methyltransferase (Homo sapiens) (protein)
chain: MPEAPPLLLAAVLLGLVLLVVLLLLLRHWGWGLCLIGWNEFILQPIHNLLMGDTKEQRILNHVLQHAEPGNAQSVLEAIDTYCEQKEWAMNVGDKKGKIVDAVIQEHQPSVLLELGAYCGYSAVRMARLLSPGARLITIEINPDCAAITQRMVDFAGVKDKVTLVVGASQDIIPQLKKKYDVDTLDMVFLDHWKDRYLPDTLLLEECGLLRKGTVLLADNVICPGAPDFLAHVRGSSCFECTHYQSFLEYREVVDGLEKAIYKGPGSEAGP
Km [2]: 2.4 µM
Vmax [2]: 0.00059 µmol/min
Km [3]: 5.6 µM
Vmax [3]: 0.0013 µmol/min
Km [4]: 2.5 µM
Vmax [4]: 0.00071 µmol/min

B3: Cytochrome P450 2C19 (Homo sapiens) (protein)
chain: MDPFVVLVLCLSCLLLLSIWRQSSGRGKLPPGPTPLPVIGNILQIDIKDVSKSLTNLSKIYGPVFTLYFGLERMVVLHGYEVVKEALIDLGEEFSGRGHFPLAERANRGFGIVFSNGKRWKEIRRFSLMTLRNFGMGKRSIEDRVQEEARCLVEELRKTKASPCDPTFILGCAPCNVICSIIFQKRFDYKDQQFLNLMEKLNENIRIVSTPWIQICNNFPTIIDYFPGTHNKLLKNLAFMESDILEKVKEHQESMDINNPRDFIDCFLIKMEKEKQNQQSEFTIENLVITAADLLGAGTETTSTTLRYALLLLLKHPEVTAKVQEEIERVIGRNRSPCMQDRGHMPYTDAVVHEVQRYIDLIPTSLPHAVTCDVKFRNYLIPKGTTILTSLTSVLHDNKEFPNPEMFDPRHFLDEGGNFKKSNYFMPFSAGKRICVGEGLARMELFLFLTFILQNFNLKSLIDPKDLDTTPVVNGFASVPPFYQLCFIPV
Km [5]: 7.3 µM
kcat [5]: 0.25 s⁻¹
Km [6]: 7.3 µM
kcat [6]: 0.25 s⁻¹
Km [7]: 5.1 µM
kcat [7]: 0.233 s⁻¹

B4: Cytochrome P450 1A2 (Homo sapiens) (protein)
chain: MALSQSVPFSATELLLASAIFCLVFWVLKGLRPRVPKGLKSPPEPWGWPLLGHVLTLGKNPHLALSRMSQRYGDVLQIRIGSTPVLVLSRLDTIRQALVRQGDDFKGRPDLYTSTLITDGQSLTFSTDSGPVWAARRRLAQNALNTFSIASDPASSSSCYLEEHVSKEAKALISRLQELMAGPGHFDPYNQVVVSVANVIGAMCFGQHFPESSDEMLSLVKNTHEFVETASSGNPLDFFPILRYLPNPALQRFKAFNQRFLWFLQKTVQEHYQDFDKNSVRDITGALFKHSKKGPRASGNLIPQEKIVNLVNDIFGAGFDTVTTAISWSLMYLVTKPEIQRKIQKELDTVIGRERRPRLSDRPQLPYLEAFILETFRHSSFLPFTIPHSTTRDTTLNGFYIPKKCCVFVNQWQVNHDPELWEDPSEFRPERFLTADGTAINKPLSEKMMLFGMGKRRCIGEVLAKWEIFLFLAILLQQLEFSVPPGVKVDLTPIYGLTMKHARCEHVQARLRFSIN
Km [8]: 15 µM
kcat [8]: 0.0833 s⁻¹
kcat/Km [8]: 5500 M⁻¹ s⁻¹

B5: Catechol O-methyltransferase (Rattus norvegicus) (protein)
chain: MPLAAVSLGLLLLALLLLLRHLGWGLVTIFWFEYVLQPVHNLIMGDTKEQRILRYVQQNAKPGDPQSVLEAIDTYCTQKEWAMNVGDAKGQIMDAVIREYSPSLVLELGAYCGYSAVRMARLLQPGARLLTMEMNPDYAAITQQMLNFAGLQDKVTILNGASQDLIPQLKKKYDVDTLDMVFLDHWKDRYLPDTLLLEKCGLLRKGTVLLADNVIVPGTPDFLAYVRGSSSFECTHYSSYLEYMKVVDGLEKAIYQGPSSPDKS
Km [9]: 7.7 µM
Vmax [9]: 0.0032 µmol/min
Km [10]: 9.2 µM
Vmax [10]: 0.0033 µmol/min
Km [11]: 5.5 µM
Vmax [11]: 0.0024 µmol/min
